# Reference: publication doi:10.1101/2024.10.10.617581
# Biological target: Ib, membrane-binding component of the Iota toxin from Clostridium perfringens (N-terminal cleaved, active) (Clostridium perfringens)
# Assay: cryo-EM structure
substance,measurement,value
"Ib, membrane-binding component of the Iota toxin from Clostridium perfringens (N-terminal cleaved, active) (natural protein)",stoichiometry N,7
